Common to all, as to assay: purified protein
Substrate in data set [1]: C[C@](O)(CO)[C@H](O)COP(=O)(O)O
It is filed as biochemical, Bacillus subtilis. The following applies: CTP co-substrate, 1 mM MgCl2, 0.1 M Tris-HCl pH 8.0, 1 mM DTT, 30 °C, MEP varied 10-400 μM, paper inconsistent: text gives 132.8 for MEP, Table 2 prints it under CTP.

Substrate in data set [2]: Nc1ccn([C@@H]2O[C@H](COP(=O)(O)OP(=O)(O)OP(=O)(O)O)[C@@H](O)[C@H]2O)c(=O)n1
It is filed as biochemical, Bacillus subtilis. As to conditions: MEP co-substrate, 1 mM MgCl2, 0.1 M Tris-HCl pH 8.0, 1 mM DTT, 30 °C, CTP varied 10-500 μM, paper inconsistent: text gives 124.8 for CTP, Table 2 prints it under MEP.

Substrate in data set [3]: Nc1ccn([C@@H]2O[C@H](COP(=O)(O)OP(=O)(O)OP(=O)(O)O)[C@@H](O)[C@H]2O)c(=O)n1
The following applies: MEP co-substrate, 1 mM MgCl2, 0.1 M Tris-HCl pH 8.0, 1 mM DTT, 30 °C, CTP varied 10-500 μM, paper inconsistent: text gives 291.5 for CTP (kcat 2307.7), Table 2 prints it under MEP (kcat 2307.2).

B1: BsIspD (Bacillus subtilis subsp. subtilis str. 168) (protein)
chain: MSYDVVIPAAGQGKRMKAGRNKLFIELKGDPVIIHTLRVFDSHRQCDKIILVINEQEREHFQQLLSDYPFQTSIELVAGGDERQHSVYKGLKAVKQEKIVLVHDGARPFIKHEQIDELIAEAEQTGAAILAVPVKDTIKRVQDLQVSETIERSSLWAVQTPQAFRLSLLMKAHAEAERKGFLGTDDASLVEQMEGGSVRVVEGSYTNIKLTTPDDLTSAEAIMESESGNKHV
notes: full length (699 bp gene, 232 residues built); pGEX-6P-1, expressed in E. coli, GST tag cut with PreScission protease; homodimer
For B1, in the data set “purified protein [1]”, the Michaelis constant (Km) (as a rule, the substrate concentration at which the rate is half of its maximum) was found to be 132.8 ± 29 µM; the kcat (in general, the number of substrate molecules converted per active site and unit of time at saturation) was determined as 71.2 s⁻¹; the kcat/Km – broadly, the second-order rate constant that governs catalysis at low substrate concentration – was 536000 M⁻¹ s⁻¹. In the data set “purified protein [2]”, the Michaelis-Menten constant (Km) came to 124.8 ± 19 µM, the kcat was 36.3 s⁻¹ and the kcat/Km amounted to 291000 M⁻¹ s⁻¹.

B2: EcIspD (Escherichia coli K-12) (protein)
chain: ATTHLDVCAVVPAAGFGRRMQTECPKQYLSIGNQTILEHSVHALLAHPRVKRVVIAISPGDSRFAQLPLANHPQITVVDGGDERADSVLAGLKAAGDAQWVLVHDAARPCLHQDDLARLLALSETSRTGGILAAPVRDTMKRAEPGKNAIAHTVDRNGLWHALTPQFFPRELLHDCLTRALNEGATITDEASALEYCGFHPQLVEGRADNIKVTRPEDLALAEFYLTRTIHQENT
notes: pET22b, C-terminal His6 tag removed with thrombin; expressed in E. coli BL21 (DE3)
B2: in the data set “purified protein [3]”, the Km was 291.5 ± 44 µM, the kcat was found to be 38.5 s⁻¹ and the specificity constant (kcat/Km) turned out to be 132000 M⁻¹ s⁻¹.

For the origin of these results see publication PMC5099578, “A structural and functional study on the 2-C-methyl-D-erythritol-4-phosphate cytidyltransferase (IspD) from Bacillus subtilis” (Scientific Reports, 2016).
